Target: B-Glucosidase
Experiment: ITC; 1 mM BSA in the syringe, 10 uL injections into 66 uM B-GLU in the cell; 25 °C; PBS pH 6; VP-ITC; fitted with AFFINImeter, independent sites approach (GoF = 50.81%)

Ka: 530000 M⁻¹
Kd: 1900 nM
dH: -0.26 kcal/mol
stoichiometry N: 1.23
Substance: Bovine Serum Albumin (from UniProt P02769 25-607) (natural protein)

From PMC7587188
